Values quoted from earlier work, collected in publication PMC12020373.

Tests used:
[1] = target: Cys106 (UniProt position 106, LIAAICAGPTA)
[2] = target: Cys145 (UniProt position 145, PILIPCHRVVC)
[3] = target: His31 (UniProt position 31, TIGIGHLLTKS)
[4] = target: Cys78 (UniProt position 79, YIDKVCELKKK)
[5] = target: Cys46 (UniProt position 47, TERPGCLDFKG)
[6] = target: Cys65 (UniProt position 66, ELKGTCKEDAM)
[7] = target: Cys17 (UniProt position 18, VKHLKCKPADE)
[8] = target: Cys36 (UniProt position 37, YKQATCGDINT)
[9] = target: Cys46 (UniProt position 47, DFTFVCPTELG)
[10] = system: Cys210
[11] = target: Cys25 (UniProt position 157, GSCGSCWAFSA)
[12] = target: Cys29 (UniProt position 108, GSCGSCWAFGA)
[13] = system: Cys51
[14] = target: Cys283 (UniProt position 283, GYVLTCPSNLG)
[15] = target: Cys283 (UniProt position 283, GYVLTCPANLG)
[16] = target: His113 (UniProt position 114, SEAIIHVLHSR)
[17] = target: His81 (UniProt position 82, LKKKGHHEAEL)
[18] = target: His116 (UniProt position 117, IIHVLHSRHPG)
[19] = target: His36 (UniProt position 37, RLFKSHPETLE)
[20] = target: His48 (UniProt position 49, FDRFKHLKTEA)
[21] = target: His12 (UniProt position 13, WQLVLHVWAKV)
[22] = target: His116 (UniProt position 117, IIHVLHSKHPG)
[23] = target: His36 (UniProt position 37, RLFTGHPETLE)
[24] = target: His113 (UniProt position 114, SDAIIHVLHSK)
[25] = target: His119 (UniProt position 120, VLHSKHPGDFG)
[26] = target: Cys125 (UniProt position 126, PGDFGCDAQGA)
[27] = target: Cys126 (UniProt position 127, GDFGACAQGAM)
[28] = target: Cys124 (UniProt position 125, HPGDFCADAQG)
[29] = target: Cys25 (UniProt position 158, GSCGSCWAFSA)
[30] = target: Cys403 (UniProt position 403, RPVIHCRAGVG)
[31] = target: Cys215 (UniProt position 215, PVVVHCSAGIG)
[32] = target: His62 (UniProt position 62, EALKEHCEVIL)
[33] = target: His83 (UniProt position 83, ITQWIHNWKKR)
[34] = target: His127 (UniProt position 127, KGHAGHPENER)
[35] = target: His124 (UniProt position 124, EWVKGHAGHPE)
[36] = target: His46 (UniProt position 128, TPETKHPKKGV)
[37] = target: His8 (UniProt position 90, STKKLHKEPAT)
[38] = system: Cys35
[39] = system: Cys28
[40] = target: Cys32 (UniProt position 33, FWAEWCGPCKM)
[41] = target: His43 (UniProt position 43, IKPFFHSLSEK)
[42] = target: Cys32 (UniProt position 32, FSATWCGPCKM)
[43] = target: Cys40 (UniProt position 40, FSASWCPPCRG)
[44] = target: Cys88 (UniProt position 88, ADGSICLDILQ)
[45] = system: Cys85

Q: For DJ-1 (PARK7) (Homo sapiens), which pKa [1] is on record?
A: 5.4

Q: With “O6-alkylguanine-DNA alkyltransferase (AGT/MGMT) (Homo sapiens)” as the substance, how does the pKa [2] read?
A: 5.3

Q: Which pKa [3] does the source give for “T4 lysozyme (PDB 2LZM) (Enterobacteria phage T4 (inferred))” here?
A: 9.1

Q: Which pKa [4] does the source give for “acyl-CoA-binding protein (PDB 1NTI) E78C (Bos taurus (inferred); E78C)” here?
A: 9.6

Q: With “acyl-CoA-binding protein (PDB 1NTI) M46C (Bos taurus (inferred); M46C)” as the substance, how does the pKa [5] read?
A: 8.2

Q: Which pKa [6] does the source give for “acyl-CoA-binding protein (PDB 1NTI) S65C (Bos taurus (inferred); S65C)” here?
A: 9.0

Q: Which pKa [7] does the source give for “acyl-CoA-binding protein (PDB 1NTI) T17C (Bos taurus (inferred); T17C)” here?
A: 9.8

Q: With “acyl-CoA-binding protein (PDB 1NTI) V36C (Bos taurus (inferred); V36C)” as the substance, how does the pKa [8] read?
A: 9.5

Q: Which pKa [9] does the source give for “alkyl hydroperoxide reductase C (peroxiredoxin AhpC) (Salmonella enterica serovar Typhimurium (inferred; article says only 'bacterial'))” here?
A: 5.9

Q: Which pKa [10] does the source give for alpha1-antitrypsin (Homo sapiens) here?
A: 6.9

Q: Which pKa [11] does the source give for “caricain (papaya protease omega) (Carica papaya)” here?
A: 2.9

Q: Which pKa [12] does the source give for cathepsin B (Rattus norvegicus) here?
A: 3.6

Q: For “methionine sulfoxide reductase A (MsrA) (Mus musculus)”, which pKa [13] is on record?
A: 7.2

Q: With “methionine sulfoxide reductase A E115Q (Mus musculus; E115Q)” as the substance, how does the pKa [13] read?
A: 8.2

Q: Which pKa [14] does the source give for muscle creatine kinase (Homo sapiens) here?
A: 5.6

Q: For “muscle creatine kinase S285A (Homo sapiens; S285A)”, which pKa [15] is on record?
A: 6.7

Q: Which results are given for “myoglobin (PDB 1A6K) (Physeter macrocephalus (sperm whale; inferred))”?
A: pKa [16]: 5.51; pKa [17]: 6.88; pKa [18]: 6.70; pKa [19]: 7.98; pKa [20]: 5.55; pKa [21]: 6.49

Q: For “myoglobin (PDB 1DWR) (Equus caballus (horse; inferred))”, which pKa [22] is on record?
A: 6.79

Q: What about the pKa [23] of the same substance?
A: 7.8

Q: What about the pKa [17] of the same substance?
A: 6.94

Q: And the pKa [24]?
A: 5.87

Q: And the pKa [25]?
A: 6.56

Q: For “myoglobin A125C (Physeter macrocephalus (sperm whale); A125C)”, which pKa [26] is on record?
A: 8.4

Q: Which pKa [27] does the source give for “myoglobin D126C (Physeter macrocephalus (sperm whale); D126C)” here?
A: 8.1

Q: With “myoglobin G124C (Physeter macrocephalus (sperm whale); G124C)” as the substance, how does the pKa [28] read?
A: 6.5

Q: With papain (Carica papaya) as the substance, how does the pKa [29] read?
A: 3.3

Q: With “protein tyrosine phosphatase YopH (Yersinia (species not stated; Y. enterocolitica for 1YPT to my knowledge))” as the substance, how does the pKa [30] read?
A: 4.7

Q: For “protein-tyrosine phosphatase 1B / PTP1 (Homo sapiens for the listed structure; the pKa source title says only 'mammalian' PTP1)”, which pKa [31] is on record?
A: 5.6

Q: Which pKa [32] does the source give for ribonuclease HI (Escherichia coli) here?
A: 7.0

Q: What about the pKa [33] of the same substance?
A: 5.5

Q: And the pKa [34]?
A: 7.9

Q: What about the pKa [35] of the same substance?
A: 7.1

Q: Which pKa [36] does the source give for “staphylococcal nuclease (PDB 1EY0) (Staphylococcus aureus (inferred))” here?
A: 5.86

Q: What about the pKa [37] of the same substance?
A: 6.52

Q: Which pKa [38] does the source give for “thiol-disulfide oxidoreductase ResA (Bacillus subtilis (inferred))” here?
A: 8.8

Q: Which pKa [39] does the source give for “thiol:disulfide interchange protein DsbA (Escherichia coli (inferred))” here?
A: 3.3

Q: For thioredoxin (Escherichia coli), which pKa [40] is on record?
A: 7.3

Q: For thioredoxin (Homo sapiens), which pKa [41] is on record?
A: 5.5

Q: What about the pKa [42] of the same substance?
A: 6.3

Q: For “tryparedoxin (Trypanosoma brucei (inferred from PDB 1O73))”, which pKa [43] is on record?
A: 7.2

Q: With “ubiquitin-conjugating enzyme E2 (PDB 1JAS; HsUbc2b) (Homo sapiens (inferred))” as the substance, how does the pKa [44] read?
A: 10.2

Q: With “ubiquitin-conjugating enzyme Ubc13 (PDB 1JBB) (Saccharomyces cerevisiae (inferred))” as the substance, how does the pKa [45] read?
A: 11.1

Q: With “ubiquitin-conjugating enzyme UbcH10 (Homo sapiens)” as the substance, how does the pKa [45] read?
A: 10.9
